Holding throughout (assay): EMSA
One series addresses T1, Myogenin/MyoDb chimera (Rattus norvegicus; Mus musculus basic …, UniProt P20428 1-73+P10085:102-121+94-287, internal_change).
T1 sequence: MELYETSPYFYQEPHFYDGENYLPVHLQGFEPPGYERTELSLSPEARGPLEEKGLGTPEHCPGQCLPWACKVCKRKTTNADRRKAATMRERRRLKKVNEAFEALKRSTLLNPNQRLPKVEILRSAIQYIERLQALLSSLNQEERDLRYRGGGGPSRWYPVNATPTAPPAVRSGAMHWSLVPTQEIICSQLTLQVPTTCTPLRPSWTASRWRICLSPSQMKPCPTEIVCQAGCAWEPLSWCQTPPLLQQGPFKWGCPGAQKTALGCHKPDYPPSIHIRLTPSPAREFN

A further series has as its target T2, MRF4 (Rattus norvegicus, UniProt P19335 1-242).
T2 sequence: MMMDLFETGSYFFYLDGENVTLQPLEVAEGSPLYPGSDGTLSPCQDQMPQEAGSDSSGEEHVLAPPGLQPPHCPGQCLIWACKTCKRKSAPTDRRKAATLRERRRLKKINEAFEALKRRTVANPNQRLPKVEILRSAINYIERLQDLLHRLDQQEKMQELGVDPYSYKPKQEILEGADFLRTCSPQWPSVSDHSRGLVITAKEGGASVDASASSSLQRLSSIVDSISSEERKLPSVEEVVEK

The target of a further series is MyoD (Mus musculus, UniProt P10085 1-318).
In a further series the target is MyoD/Myogeninb chimera (Mus musculus; Rattus norvegicus basic …, UniProt P10085 1-101+P20428:74-93+122-318, internal_change).
In the next series the target is T3, MRF4;E47 (Rattus norvegicus;Mus musculus, UniProt P19335;P15806-2 1-242;1-648, |).
T3 sequence 1: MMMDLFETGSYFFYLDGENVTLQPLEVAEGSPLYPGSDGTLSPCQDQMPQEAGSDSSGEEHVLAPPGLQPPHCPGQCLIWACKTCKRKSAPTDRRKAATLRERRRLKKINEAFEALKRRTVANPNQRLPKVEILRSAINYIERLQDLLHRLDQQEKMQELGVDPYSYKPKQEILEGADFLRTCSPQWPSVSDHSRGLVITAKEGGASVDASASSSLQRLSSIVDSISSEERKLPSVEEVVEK
T3 sequence 2: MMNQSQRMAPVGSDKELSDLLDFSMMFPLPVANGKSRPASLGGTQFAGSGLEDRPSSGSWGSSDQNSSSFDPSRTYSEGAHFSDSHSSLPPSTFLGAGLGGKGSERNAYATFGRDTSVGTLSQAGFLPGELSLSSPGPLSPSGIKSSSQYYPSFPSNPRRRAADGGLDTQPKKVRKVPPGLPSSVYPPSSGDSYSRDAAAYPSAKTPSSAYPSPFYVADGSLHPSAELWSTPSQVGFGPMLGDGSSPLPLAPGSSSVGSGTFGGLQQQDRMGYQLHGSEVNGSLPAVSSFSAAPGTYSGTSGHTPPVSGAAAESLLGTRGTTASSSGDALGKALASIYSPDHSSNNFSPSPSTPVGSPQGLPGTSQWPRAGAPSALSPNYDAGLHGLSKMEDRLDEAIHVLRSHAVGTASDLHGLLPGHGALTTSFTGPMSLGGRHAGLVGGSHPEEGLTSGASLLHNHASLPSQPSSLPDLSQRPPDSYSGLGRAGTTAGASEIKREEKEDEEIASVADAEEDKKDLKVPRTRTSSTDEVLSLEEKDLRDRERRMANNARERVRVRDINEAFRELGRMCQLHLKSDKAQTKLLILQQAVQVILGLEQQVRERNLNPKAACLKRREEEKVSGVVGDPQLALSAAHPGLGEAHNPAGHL

For series [1], the target named is T4, MyoD;E47 (Mus musculus;Mus musculus, UniProt P10085;P15806-2 1-318;1-648, |).
Series [2] addresses T5, Myogenin;E47 (Rattus norvegicus;Mus musculus, UniProt P20428;P15806-2 1-287;1-648, |).
T5 sequence 1: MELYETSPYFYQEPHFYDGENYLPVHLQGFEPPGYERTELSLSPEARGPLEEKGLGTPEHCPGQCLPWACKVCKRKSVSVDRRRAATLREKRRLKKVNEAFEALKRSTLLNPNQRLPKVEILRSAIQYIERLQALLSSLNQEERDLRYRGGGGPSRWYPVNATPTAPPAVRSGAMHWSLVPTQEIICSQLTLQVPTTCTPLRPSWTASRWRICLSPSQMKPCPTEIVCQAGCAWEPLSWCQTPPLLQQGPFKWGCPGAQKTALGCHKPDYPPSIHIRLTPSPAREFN
T5 sequence 2: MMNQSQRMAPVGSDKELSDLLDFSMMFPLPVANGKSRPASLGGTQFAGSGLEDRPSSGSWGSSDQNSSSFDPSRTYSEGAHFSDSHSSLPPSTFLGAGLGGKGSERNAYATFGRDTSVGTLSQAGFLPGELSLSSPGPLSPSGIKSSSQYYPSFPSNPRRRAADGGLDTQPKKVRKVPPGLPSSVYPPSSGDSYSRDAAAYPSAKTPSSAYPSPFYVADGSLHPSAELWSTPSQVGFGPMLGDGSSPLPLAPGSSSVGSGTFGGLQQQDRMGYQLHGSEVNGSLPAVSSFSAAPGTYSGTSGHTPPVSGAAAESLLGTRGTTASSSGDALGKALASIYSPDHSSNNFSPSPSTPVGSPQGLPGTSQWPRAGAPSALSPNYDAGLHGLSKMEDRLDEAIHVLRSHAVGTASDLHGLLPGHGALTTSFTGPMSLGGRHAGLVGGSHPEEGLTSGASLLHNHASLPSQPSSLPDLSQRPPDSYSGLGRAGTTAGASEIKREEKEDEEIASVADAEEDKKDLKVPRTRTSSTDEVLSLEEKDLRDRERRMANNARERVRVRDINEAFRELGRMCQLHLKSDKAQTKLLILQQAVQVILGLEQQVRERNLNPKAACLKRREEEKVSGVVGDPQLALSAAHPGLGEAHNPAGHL

In another series the target is T6, Myogenin (Rattus norvegicus, UniProt P20428 1-287).
T6 sequence: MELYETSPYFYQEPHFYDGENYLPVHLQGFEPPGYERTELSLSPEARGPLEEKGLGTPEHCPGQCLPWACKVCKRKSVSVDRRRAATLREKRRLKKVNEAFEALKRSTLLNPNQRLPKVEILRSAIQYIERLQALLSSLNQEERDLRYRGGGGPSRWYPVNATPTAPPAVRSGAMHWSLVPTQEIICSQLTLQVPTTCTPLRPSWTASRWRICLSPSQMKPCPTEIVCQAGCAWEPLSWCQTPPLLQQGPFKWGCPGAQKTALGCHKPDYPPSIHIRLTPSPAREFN

For another series, the target named is T7, mut-Myogenin (Rattus norvegicus, UniProt P20428 1-287, R84K;K91R).
T7 sequence: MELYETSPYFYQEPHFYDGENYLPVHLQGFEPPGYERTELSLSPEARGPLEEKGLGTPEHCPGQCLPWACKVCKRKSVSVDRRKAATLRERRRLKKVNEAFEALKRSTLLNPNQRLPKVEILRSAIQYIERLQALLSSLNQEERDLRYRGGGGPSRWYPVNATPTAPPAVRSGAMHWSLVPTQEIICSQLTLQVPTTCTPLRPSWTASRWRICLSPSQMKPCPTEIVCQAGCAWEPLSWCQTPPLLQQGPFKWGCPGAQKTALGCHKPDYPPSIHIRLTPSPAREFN

Series [3] deals with T4, MyoD;E47. This is another data set of the same source.
Series [4] has as its target T5, Myogenin;E47. The source holds these as a separate data set.

For three molecules, Kd, binding result and binding signal results are on record in PMC2475631.

For orientation: Kd means the constant that tells how readily two partners part at equilibrium. Low values mean tighter binding, high ones weaker binding.

B1: G'2 integrin DNA (structured_DNA)
DNA: CATGGGGGCGGGAAGGGGCGGGGTCT
Turning to B1, the Kd amounted to 7.1 ± 1.9 nM in the series with Myogenin/MyoDb chimera; 5.3 ± 1.3 nM with MRF4; 4.4 ± 2.5 nM in the series with MyoD; 6 ± 3.1 nM with MyoD/Myogeninb chimera; 19.5 ± 2.7 nM in the series with MRF4;E47; 11.2 ± 4.3 nM with MyoD;E47 [1]. Moreover, the Kd came to 8.5 ± 2 nM with Myogenin;E47 [2] and 30 ± 8 nM with Myogenin. In the series with mut-Myogenin, the binding result was “binds”.

B2: E-box DNA (dsDNA)
DNA 1: TCGATCCCCCAACACCTGCTGCCTGA
DNA 2: TCAGGCAGCAGGTGTTGGGGGACGA
With B2, the Kd with MRF4 came to 21.3 ± 11 nM; with MyoD, 91.8 ± 1.6 nM; with MRF4;E47 it was 0.2 ± 0.1 nM; in the series with MyoD;E47 [1], 1.7 ± 0.6 nM; with Myogenin;E47 [2] it was 0.2 ± 0.1 nM; in the series with Myogenin, 25.4 ± 11 nM.

B3: G'2 sMtCK DNA (structured_DNA)
DNA: CTGAGGAGGGGCTGGAGGGACCAC
Consider B3, for which the binding result in the series with MRF4 is given as “binds”. Besides, the binding signal turned out to be 15 fold weaker than E-box with MyoD;E47 [3] and 128 fold weaker than E-box with Myogenin;E47 [4].
